Here are results for 2 molecules from patent publication US20160108117A1 (UNIVERSITE DE NICE SOPHIA ANTIPOLIS, published 2016).

The target in assay [1] is T1, human chemokine CXCL1 (human, UniProt P09341 35-107).
T1 construct: also called growth-regulated oncogene alpha; GRO-alpha
T1 sequence (looked up): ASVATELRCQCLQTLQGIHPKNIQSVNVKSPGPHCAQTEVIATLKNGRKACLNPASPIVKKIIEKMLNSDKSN
The experiment in a line: SPR (Biacore 3000), antibody captured on a CM5 chip, cytokine as analyte, 25 C; head 'x M10Exp8' applied as printed, but this does not agree with 1/Kd of the same pair (about 6.4e7). An excerpt:
(§1) With the BIAcore® 3000, 4 canals (Flow cell) are designed on the CM5 sensor surface. The polyclonal rabbit anti mouse IgG antibodies are covalently coupled on the 2nd, 3rd and 4th flow cells (FC), leaving the first FC (FC1) blank for reference subtraction. The first FC (FC1) is only activated (EDC/NHS) and deactivated (ethanolamine hydrochloride NaOH), without injection of capture antibody.
(§2) First the ligand (interest antibody) is captured by the immobilised antibodies. Diluted antibodies Mc12A10-13 (5 μg/mL), Mc35B11-8 (8 μg/mL), McCXCL1 (2 μg/mL), McCXCL7 (1 μg/mL), McCXCL8 (3 μg/mL), McPan CXCL1-2-3 (5 μg/mL) are captured by the polyclonal rabbit anti mouse IgG antibodies immobilized on the CM5 sensor chip with a 3 minutes injection at a flow rate of 5 μL/min. The complex “capture antibody—ligand” is stabilized during 10 minutes before the injection of the analyte (cytokines). This capture is a non-covalent interaction.
(§3) Then a range of cytokine concentration is injected (analyte) over the captured antibody (ligand). Cytokines CXCL1, CXCL3, NAP2, IL8 are injected over the captured ligand for a range of concentration from 0 to 10 μg/mL, at a flow rate of […]. The complex “ligand/analyte” is formed. The association and the dissociation phases are monitored over about 3 minutes and 2.5 minutes respectively. The signal induced is measured in RU (Resonance Unit).
On the technique in general: SPR reads the build-up and loss of mass on a sensor chip optically.

For assay [2], the target named is T2, peptide specific for human CXCL7 of sequence SDLYAELRCMCIKTTSGIHPKNIQS (SEQ ID NO: 20) coupled to keyhole … (human, coupled to keyhole limpet hemocyanine).
T2 construct: Immunisation peptide, used in the ELISA screen as a KLH conjugate; also called pCXCL7
T2 peptide: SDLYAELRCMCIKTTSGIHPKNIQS
The experiment in a line: ELISA screen on KLH-coupled peptide.

Assay [3] deals with T3, human chemokine CXCL7 (human, UniProt P02775 59-128).
T3 construct: also called NAP2; NAP-2
T3 sequence (looked up): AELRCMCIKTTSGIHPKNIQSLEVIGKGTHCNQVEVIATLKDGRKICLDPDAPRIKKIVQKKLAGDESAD
The experiment in a line: SPR (Biacore 3000), antibody captured on a CM5 chip, cytokine injected as analyte, 25 C.
Text: as §1, §2, §3

Assay [4] deals with T4, human chemokine CXCL8 (human, UniProt P10145 28-99, limits assumed).
T4 construct: also called IL8; IL-8
T4 sequence (looked up): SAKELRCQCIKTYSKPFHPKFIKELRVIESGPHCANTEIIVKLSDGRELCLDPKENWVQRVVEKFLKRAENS
Described as above.
Text: as §1, §2, §3

Assay [5] addresses T5, CXCL3 (human (presumed; the text does not …, UniProt P19876).
T5 construct: also called cytokine CXCL3; Gro-gamma
T5 sequence (chemokine, looked up): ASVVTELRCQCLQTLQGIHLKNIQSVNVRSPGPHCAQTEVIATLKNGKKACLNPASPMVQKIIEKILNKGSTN
Described as above.
Text: as §1, §2, §3

Assay [6] deals with T1, human chemokine CXCL1. Described as above.
Text: as §1, §2, §3

Assay [7] has as its target T5, CXCL3. As to the kind of experiment: SPR (Biacore 3000), antibody captured on a CM5 chip, cytokine as analyte, 25 C; head 'x M10Exp8' applied as printed, but this does not agree with 1/Kd of the same pair (about 1.55e7).
Text: as §1, §2, §3

Assay [8] concerns the target T3, human chemokine CXCL7. The experiment in a line: SPR (Biacore 3000), antibody captured on a CM5 chip, cytokine as analyte, 25 C; head 'x M10Exp8' applied, agrees with 1/Kd.
Text: as §1, §2, §3

For assay [9], the target named is T4, human chemokine CXCL8. As to the kind of experiment: SPR (Biacore 3000), antibody captured on a CM5 chip, cytokine as analyte, 25 C; head 'x M10Exp8' applied as printed, but this does not agree with 1/Kd of the same pair (about 2.26e7).
Text: as §1, §2, §3

For assay [10], the target named is T1, human chemokine CXCL1. The experiment in a line: SPR (Biacore 3000), antibody captured on a CM5 chip, cytokine as analyte, 25 C; head 'x M10Exp8' applied as printed, but this does not agree with 1/Kd of the same pair (about 8.47e7).
Text: as §1, §2, §3

Assay [11] addresses T4, human chemokine CXCL8. As to the kind of experiment: SPR (Biacore 3000), antibody captured on a CM5 chip, cytokine as analyte, 25 C; head 'x M10Exp8' applied as printed, but this does not agree with 1/Kd of the same pair (about 5.03e7).
Text: as §1, §2, §3

B1: monoclonal rat IgG antibody produced by the hybridoma 12A10-13 (CNCM I-4617) (antibody, V domains shown)
VH: QVQLQQSGAELAKPGSSVKISCKASGYTFTSYYISWIKQTTGQGLEYIGYINTGSGGTNYNEKFKGKATLTVDKSSSTAFMQLSSLTPDDSAVYYCASPSGGFDYWGQGVMVTVSS
VL: EIVLTQSPTTMAASPGEKVTITCRASSSVSYMHWYQQKPGASPKPWIYDTSKLASGVPNRFSGSGSGTSYSLTISSMETEDTATYYCQQWSSNSLTFGSGTKLEIK
notes: also called Mc12A10-13
B1: the Ka was 6.4e+07 M⁻¹ with human chemokine CXCL1 [1], 1.55e+07 M⁻¹ with CXCL3 [7], 3.03e+08 M⁻¹ with human chemokine CXCL7 [8] and 2.26e+07 M⁻¹ with human chemokine CXCL8 [9]. In [2], the binding result was “binds”. For the same molecule, the dissociation constant Kd (in general, the constant that tells how readily two partners part at equilibrium) came to 3.3 nM with human chemokine CXCL7 [3], 44.3 nM with human chemokine CXCL8 [4], 64.5 nM with CXCL3 [5] and 15.6 nM with human chemokine CXCL1 [6].

B2: monoclonal rat IgG antibody produced by the hybridoma 35B11-8 (CNCM I-4618) (antibody, V domains shown)
VH: EVQLVESGGGLVQPGRSLKLSCVASGFTFNNYWMTWIRQAPGKGLEWVASISKTGSNPYYPDSVKGRFTISRDNAKNTLYLQMNSLRSEDTATYYCARDGTTPLDYWGQGVMVTVSS
VL: DIQMTQSPPSLSASLGDKVTITCQASQNINKYIAWYQQKPGKAPGLLIHYTSTLVSGIPSRFSGSGSGRVYSFSISNVESEDIASYYCLQYDNSPFPFGAGTKLELK
notes: also called Mc35B11-8
Turning to B2, the figures for the Ka in the assay with human chemokine CXCL1 [10], in the assay with human chemokine CXCL7 [8] and with human chemokine CXCL8 [11] were 8.5e+07 M⁻¹, 2.01e+08 M⁻¹ and 5.03e+07 M⁻¹, respectively. Further, the binding result in assay [2] is “binds”. The Kd came out at 4.99 nM in the assay with human chemokine CXCL7 [3], 19.9 nM with human chemokine CXCL8 [4], 247 nM with CXCL3 [5] and 11.8 nM in the assay with human chemokine CXCL1 [6].
